The results in this text go back to article doi:10.1101/2022.09.05.506711, “New structures of Class II Fructose-1,6-Bisphosphatase from Francisella tularensis suggest a novel catalytic mechanism for the entire Class” (bioRxiv, 2022).

The data set concerns the molecule itself. The data set can be described thus: crystal structure.

B1: Mycobacterium tuberculosis class II fructose-1,6-bisphosphatase (enzyme)
chain: MELVRVTEAGAMAAGRWVGRGDKEGGDGAAVDAMRELVNSVSMRGVVVIGEGEKDHAPMLYNGEEVGNGDGPECDFAVDPIDGTTLMSKGMTNAISVLAVADRGTMFDPSAVFYMNKIAVGPDAAHVLDITAPISENIRAVAKVKDLSVRDMTVCILDRPRHAQLIHDVRATGARIRLITDGDVAGAISACRPHSGTDLLAGIGGTPEGIIAAAAIRCMGGAIQAQLAPRDDAERRKALEAGYDLNQVLTTEDLVSGENVFFCATGVTDGDLLKGVRYYPGGCTTHSIVMRSKSGTVRMIEAYHRLSKLNEYSAIDFTGDSSAVYPLP
notes: also called MtFBPaseII; MtFBPase
As usually defined, the stoichiometry N is the number of molecules, sites or subunits per partner or assembly. For the protein B1, the “stoichiometry N” value was found to be 4.
